# Experiment: label from the status in PepcDB records
row,Sequence,protein production
1,MYQVVASDLDGTLLSPDHFLTPYAKETLKLLTARGINFVFATGRHYIDVGQIRDNLGIRSYMITSNGARVHDSDGQQIFAHNLDRDIAADLFEIVRNDPKIVTNVYREDEWYMNRHRPEEMRFFKEAVFNYKLYEPGELDPQGISKVFFTCEDHEHLLPLEQAMNARWGDRVNVSFSTLTCLEVMAGGVSKGHALEAVAKMLGYTLSDCIAFGDGMNDAEMLSMAGKGCIMANAHQRLKDLHPELEVIGSNADDAVPRYLRKLYLD,not failed
2,MYRDRIRLPSLMSKVMSAADAAALIEDGMTVGMSGFTRAGEAKAVPHALAERAKVTPLKISLMTGASLGNDLDKQLTESGVLSRRMPFQVDSTLRKAINNGTVMFIDQHLSDTVELLRNRQIKAVDLAVIECVAITEEGHLVLSTSVGNSASFAILAKQVIVEINLSQPLELEGLHDIYIPSYRPTRLPIPVLEADSRIGSHAVKIDPAKIVGIVISNQPDSPSTVTPPDADTQAIANHLVEFFKKEVREDRLTDKLMPLQAGIGNIANAVMHGLLESPFTDLTMYSEVLQDSTFDLFDAGKLTFASGSSMTLSAAKHAEVFADFNRYKSRLVLRPQEISNHPEVIRRLGIIGINTALEFDLYGNVNSTHICGTRMMNGIGGSGDFSRNAHLAIFVTKSIAKGGAISSVVPMVSHVDHTEHDVDILVTEQGLADLRGLAPRERARVIIDNCVHADYRDALNAYFDAACALGGHTPHILREALSWHINLEENGRMLPT,failed
3,MYTRLLVVSLACLLFGVSAFAQPMAPVPDAPLRNAALRMKDKDYRAVRDELRSVPPSPERTFLDGVAARRLEQWPEASELLGVAAKDLPLLADYALFWQAEALMAATRYDEAEEVLQRLVGTWPDSPTLRKARMLLADAQFARKEYRQALASYIRFIELYPSGTDSVTANLKTALCREGLDDPRRAVQELRAIWLAYPASPVAETAEQELKRLEALGFPAVPLTPDELLKRGTTLYNLGKYERALAVFNTIPLKEQLAGFNDRVALKIGETLLKLRRYKDAARTFSSLIEREPKREIADEARFLLARAQNKAGNDDEAFLGFLKLAETAPTSEWADNALLEAAFVRKFQGRYADQLAVLEKLLTTYPGTKLKPRAMWETAWARYNTGDYRSAAESFRLLTASADYRERALYWHGRSLQRIGEETVARQSFAMLAEEYPFSFYTFTATDPAPQEGAIPLIVHDLRQTISPPAGHERARALIAMGLHDQARSELSIARKNGSSRGKGLLGIARLYLEMNDYSSAAAALRGEQPRRMDGETATTWGLLYPRGFSDSVAAEANRHTIPEELIYGLIKAESGFSPVALSPVGAVGLMQLMPSTAKGMVNGSSPANGISARLTDPTFNVGLGVRHLKDLLKQYNGNVVSAVAAYNAGSRPVDRWRRSLAGLREDEFIENIPYYETREYVKKVLTFAEVYRRLYRPAAPALAFLPQVSAPEPPQPAPTNNAPPTAALASPPETSALTAPVRQQP,failed
4,MYVTIVYASVKTDKTEAFKEATRMNHEQSIREPGNMRFDILQSADDPTRFVLYEAYKTRKDAAAHKETAHYLTWRDTVADWMAEPRKGVIYGGLYPTGDD,not failed
5,MYYKFGEIKNKIISFNGFEFKVSAMKKHDGISIQVKDMNNVPLKSFHVVDLSELYIAMDAMRDVINEWIEENTDERDRLINLVMRW,failed
6,NANLDPKTRVLEHRLLAASSAIAEKLGVSAGDEVLLIRRLRSTGDIPVAILENYLPPAFNDVSLDELEKGGLYDALRSRGVVLKIANQKIGARRAVGEESTLLDIEDGGPLLTVERVALDNSGQVIELGSHCYRPDMYNFETTLVAR,not failed
7,NAQARFSQNLLDQGSHPTSEKLLSVLRPASGHVADALGITEGENVIHLRTLRRVNGVALCLIDHYFADLTLWPTLQRFDSGSLHDFLREQTGIALRRSQTRISARRAQAKECQRLEIPNMSPLLCVRTLNHRDGESSPAEYSVSLTRADMIEFTMEH,not failed
8,NCRLFIGGIPKMKKREEILEEIAKVTEGVLDVIVYASAADKMKNRGFAFVEYESHRAAAMARRKLMPGRIQLWGHQIAVDWAEPEIDVDEDVMETV,not failed
9,NDAIPTIFIHGYRGTDRSLHGMIRRFDQKYNWGTESLTVNVSPDGSISTTGTYSKNEKNPLINIVFEDNRATLPQQSMWTKKIMSYLQKNYDIKKFNAIGHSMGGGAWVSYLASYEKNKSYPQVNKIVFLAVPFYPEEYVNGDQQVDIKNANNVHAKFAQKMAKVLPDNTEIMIIGGDLEDGSNSDGEVKLNSVLYGQKLFAHQKVITHVIKGPKATHSSMHESTVVDKYVGQFLWGQK,failed
10,NEHEYAYIMQTSGSTGKPKRIAVSYSNLHCYISQIDKLFPLNAQDRVGQYSDLTFDLSVHDIFYSLISGACLYVVPELAKLSPAEFIHHHQLTVWLSVPTVIELALQRQTLTPHSLPSLRLSFFCGQALLHDLAEQWQQATQQPVINLYGPTECTIAVTYHRFVAHSGMASV,failed
11,NEVDDMDTSDTQWGWFYLAECGKWHMFQPDTNSQCSVSSEDIEKSFKTNPCGSISFTTSKFSYKIDFAEMKQMNLTTGKQRLIKRAPFS,not failed
12,NGGIPHDNLVLIRMKPDENGRFGFNVKGGYDQKMPVIVSRVAPGTPADLCVPRLNEGDQVVLINGRDIAEHTHDQVVLFIKASCERHSGELMLLVRPNAVYDVVEE,not failed
13,NGKIALEEHFATEETLMDSAGFVPDKDWPELRSRLLDIQDRRVRLMDEHGIETMILSLNAPAVQAIADSTRANETARRANDFLAEQVAKQPTRFRGFAALPMQDPELAARELERCVKELGFVGALVNGFSQDNRSAVPLYYDMAQYWPFWETVQALDVPFYLHPRNPLPSDARIYDGHAWLLGPTWAFGQETAVHALRLMGSGLFDKYPALKIILGHMGEGLPYSMWRIDHRNAWIKTTPKYPAKRKIVDYFNENFYLTTSGNFRTQTLIDAILEIGADRILFSTDWPFENIDHAADWFENTSISEADRKKIGWGNAQNLFKLNR,not failed
14,NNELTQFLPRIVTLKKPPGAQLGFNIRGGKASQLGIFISKVIPDSDAHRAGLQEGTXVLAVNDVDFQDIEHSKAVEILKTAREISMRVRFF,not failed
15,NPNPISIPIDLSQAGSVVEKEVKIEESWSYHLILQFAVHDRKEDGGLDGKRVWKFLGFNSYDPRDGKQVGYVDYRLAKSELGDLIDETYDCDGTVVPIKITIHQINQDNTKKLIADNLYMTKGNGSGAYTRDITTISLDKGKYIFRIENIEAFSEMIGRKVDFTIYINKRDK,not failed
16,NSNTLSQIQLNEQSCLSQVVNNLYRLHNSEFVFRNVFSVFDEFRQYFSLLENKSAFYQADSRMDKLSAVFWQFEEINKEVILRPCHNDLVPENMLLQDDRLFFIDWEYSGLNDPLFDIATIIEEAHLSKEAADFLLETYCNQTNKYHKTEFQIAHKRLKIHRFCQNVLWFLWTKVKEEHGENFGDYALKRLDAAFKLLEELP,failed
17,NSSKSLEAELVRDRQELIDARKKELKAYMMMGVTAIKPLYDSDVNGSNKQAAKEILKAMRFESDGYFFAYDSQGINTLHAIKPSLEGKNLYDLKDENGVAVIAGLIDASQKGDGFLYFSWHKPTINAQAPKLGYAEYLQKWDWVLGTGIYIDDIDQQVAMQRELRTQELNQHT,not failed

row,Sequence,protein production
1,NTKQLRFEDVVNQSSPKNCTVYCGGIASGLTDQLMRQTFSPFGQIMEIRVFPEKGYSFVRFSTHESAAHAIVSVNGTTIEGHVVKCYWGKESPDMT,not failed
2,NTRLRRTKEVNEILGIDPVDKNLLVNQFVKWDPKEDKHIEVSMPKKLEKMADFLGVSVQEVYDEMLSRKRYLELMLKRGIRNYKEVTRYIHAYYRNPELAMTKME,failed
3,PAAEAAPMSLAIHSTTGTRYDLAVPPDETVEGLRKRLSQRLKVPKERLALLHKDTRLSSGKLQEFGVGDGSKLTLVPTVEAGLMSQASRPEQSVMQ,failed
4,PAMICRYRPDLTLTFGNRPLAAYLECAPEELPGSNLGQWLSAEQREGFERRLKLLSPEYPVSTAEINLQLPGREHAWWVWSDRGVFDEQGQLLEIQAVGRDNTEVRRAQQQLTQSAKMATLGEMATGLAHEINQPLNVMRMAIVNVLKRLGNG,failed
5,PARIDTLEIKLLFAGDIMTHGPQIESAKCEGGRVYDFSSSFDTLASRIGAADLAIGNLETTFAGAPYSGYPTFSSPDAMGEALKNAGFDVLTTANNHTADKGKKGIIRTLDMLDSLGIAHTGSYRDIFDRDKMTPLILEVKGVRIAILAYTYGTNGMPVPAPTWVDPIDTVMIKKDLLRADSLGADYRIVQIHWGIEYRKEPDSEQLELARKLHRYGADAIIGSHPHVV,failed
6,PDADPVEIENRIIELCHQFPHGITDQVIQNEMPHIEAQQRAVAINRLLSMGQLDLLRSNTGLLYRIKD,not failed
7,PDISVAQPASALRYHLRPPRRNDGAAIHQLVSECPPLDLNSLYAYLLLCEHHAHTCVVAESPGGRIDGFVSAYLLPTRPDVLFVWQVAVHSRARGHRLGRAMLGHILERQECRHVRHLETTVGPDNQASRRTFAGLAGERGAHVSEQPFFDRQAFGGADHDDEMLLRIGPFTH,not failed
8,PEKPAKTQKTSLDEALQWRDSLDKLLQNNYGLASFKSFLKSEFSEENLEFWIACEDYKKIKSPAKMAEKAKQIYEEFIQTEAPKEVNIDHFTKDITMKNLVEPSLSSFDMAQKRIHALMEKDSLPRFVRSEFYQELI,not failed
9,PFGSTSGSLFGPSSFTAAPTGTTIKFNPPTGTDTMVKAGVSTNISTKHQCITAMKEYESKSLEELRLEDYQANRKGPQNQVGAGTTTGLFGSSPATSSATGLFSSSTTNSGFAYGQNK,failed
10,PFYTQGDSLTSEDHLDDTWVTVFGFPQASASYILLQFAQYGNILKHVMSNTGNWMHIRYQSKLQARKALSKDGRIFGESIMIGVKPCIDKNVMENSDRGVLSSPSL,not failed
11,PGIERLAEEATASFPEARIAVLSSDMFGTARALKERIEAIAAGEADIVIGTQLVAKGHNFPLLTLVGVIDADLGLQGSDLRAAERTFQLMRQVAGRAGRAEKPGQALLQTYQPE,failed
12,PGKEAQPAENVEFIYENGTWKLSQSWACTLIKNTVAPEQIPAMCADPAAPAPEGQPAPEQAPAPEAPAPEQAPAPEAPAPQ,failed
13,PGLSLRTLDMDRLEEEVRTVRDIYNDAWSDNWGFVPMTEGELQQLADELKQIVDPEIVFFVEHEGTPVGFSVALPDVNQALRHVPDGRLFPYGVPSGLTTLFLHMQYGVHECRMPLMGIRKDYQGKGLDSMLVLATIENGPANGYAACEMSWVLDTNDRLKNHVESLGAVVDKEYAMFETPLSQND,failed
14,PGSFSQEAAEIFGSDLVPVRSISEIFHKISVTGDYGIVPIENSIEGPVNETLDGLFRHEDIYIVDHVEIPIEIFLASNCDTENIRRIYSHPHAIAEAGDYLERTENIEVIRTSSTSEAAKLASMDEAGAALCSMKAAQHYGLANTVKIESKSRNITRFILIGRERN,not failed
15,PGSPPGEGAPLAADVYVGNLPRDARVSDLKRALRELGSVPLRLTWQGPRRRAFLHYPDSAAAQQAVSCLQGLRLGTDTLRVALARQQRDK,not failed
16,PIDLITVGSLIELQDSQNPFQYWIVSVIENVGGRLRLRYVGLEDTESYDQWLFYLDYRLRPVGWCQENKYRMDPPSEIYPLKMASEWKCTLEKSLIDAAKFPLPMEVFKDHADL,not failed
17,PIEGEKVDLRIMSTTDLHTNLVNYDYYQDKESQKIGLAKTAVLIEEAKKENPNTVLVDNGDVIQGTPLGTYKAIVKPVAENEEHPMYQAMNALGYDASTLGNHEFNYGLDYLKKIIATANLPILNANVLDFKTHQPVFKTYDIITKTFKDSTGRAVALNIGITGIVPPQILNWDKANLEGKVIVKDSVKAIEEIVPTMRAKGADVILVLSHSGIGDDRYEEGEENVGYQIASIKGVDAVVTGHSHAEFPSGNGTGFYEKYTGVDGINGKINGTPVTMAGKYGDHLGIIDLGLSYTNGKWQVSESSAKIRKIDMNSTTADERIIALAKEAHDGTINYVRQ,not failed

# Source: a protein production outcome set (Wang et al. 2014)
